Source: patent publication US20180051079A1 (MacroGenics, published 2018)

B1: Fc variant F243L P247L N421K (other, UniProt P01857-1 104-330, looked up)
chain: DKTHTCPPCPAPELLGGPSVFLLPPKLKDTLMISRTPEVTCVVVDVSHEDPEVKFNWYVDGVEVHNAKTKPREEQYNSTYRVVSVLTVLHQDWLNGKEYKCKVSNKALPAPIEKTISKAKGQPREPQVYTLPPSRDELTKNQVSLTCLVKGFYPSDIAVEWESNGQPENNYKTTPPVLDSDGSFFLYSKLTVDKSRWQQGKVFSCSVMHEALHNHYTQKSLSLSPGK
notes: domain: Fc
B2: Fc variant F243L R255L D270E P396L (other, UniProt P01857-1 104-330, looked up)
chain: DKTHTCPPCPAPELLGGPSVFLLPPKPKDTLMISLTPEVTCVVVDVSHEEPEVKFNWYVDGVEVHNAKTKPREEQYNSTYRVVSVLTVLHQDWLNGKEYKCKVSNKALPAPIEKTISKAKGQPREPQVYTLPPSRDELTKNQVSLTCLVKGFYPSDIAVEWESNGQPENNYKTTPLVLDSDGSFFLYSKLTVDKSRWQQGNVFSCSVMHEALHNHYTQKSLSLSPGK
notes: domain: Fc
B3: Fc variant F243L R292P V305I (other, UniProt P01857-1 104-330, looked up)
chain: DKTHTCPPCPAPELLGGPSVFLLPPKPKDTLMISRTPEVTCVVVDVSHEDPEVKFNWYVDGVEVHNAKTKPPEEQYNSTYRVVSILTVLHQDWLNGKEYKCKVSNKALPAPIEKTISKAKGQPREPQVYTLPPSRDELTKNQVSLTCLVKGFYPSDIAVEWESNGQPENNYKTTPPVLDSDGSFFLYSKLTVDKSRWQQGNVFSCSVMHEALHNHYTQKSLSLSPGK
notes: domain: Fc; also called Mutant 13*
B4: Fc variant F243L R292P V305I P396L (other, UniProt P01857-1 104-330, looked up)
chain: DKTHTCPPCPAPELLGGPSVFLLPPKPKDTLMISRTPEVTCVVVDVSHEDPEVKFNWYVDGVEVHNAKTKPPEEQYNSTYRVVSILTVLHQDWLNGKEYKCKVSNKALPAPIEKTISKAKGQPREPQVYTLPPSRDELTKNQVSLTCLVKGFYPSDIAVEWESNGQPENNYKTTPLVLDSDGSFFLYSKLTVDKSRWQQGNVFSCSVMHEALHNHYTQKSLSLSPGK
notes: domain: Fc; also called Mutant 17
B5: Fc variant F243L R292P Y300L P396L (other, UniProt P01857-1 104-330, looked up)
chain: DKTHTCPPCPAPELLGGPSVFLLPPKPKDTLMISRTPEVTCVVVDVSHEDPEVKFNWYVDGVEVHNAKTKPPEEQYNSTLRVVSVLTVLHQDWLNGKEYKCKVSNKALPAPIEKTISKAKGQPREPQVYTLPPSRDELTKNQVSLTCLVKGFYPSDIAVEWESNGQPENNYKTTPLVLDSDGSFFLYSKLTVDKSRWQQGNVFSCSVMHEALHNHYTQKSLSLSPGK
notes: domain: Fc; also called Mutant 16
B6: Fc variant F243L R292P Y300L V305I P396L (other, UniProt P01857-1 104-330, looked up)
chain: DKTHTCPPCPAPELLGGPSVFLLPPKPKDTLMISRTPEVTCVVVDVSHEDPEVKFNWYVDGVEVHNAKTKPPEEQYNSTLRVVSILTVLHQDWLNGKEYKCKVSNKALPAPIEKTISKAKGQPREPQVYTLPPSRDELTKNQVSLTCLVKGFYPSDIAVEWESNGQPENNYKTTPLVLDSDGSFFLYSKLTVDKSRWQQGNVFSCSVMHEALHNHYTQKSLSLSPGK
notes: domain: Fc; also called Mutant 18
B7: Fc variant P247L D270E N421K (other, UniProt P01857-1 104-330, looked up)
chain: DKTHTCPPCPAPELLGGPSVFLFPPKLKDTLMISRTPEVTCVVVDVSHEEPEVKFNWYVDGVEVHNAKTKPREEQYNSTYRVVSVLTVLHQDWLNGKEYKCKVSNKALPAPIEKTISKAKGQPREPQVYTLPPSRDELTKNQVSLTCLVKGFYPSDIAVEWESNGQPENNYKTTPPVLDSDGSFFLYSKLTVDKSRWQQGKVFSCSVMHEALHNHYTQKSLSLSPGK
notes: domain: Fc
B8: Fc variant R255L D270E P396L (other, UniProt P01857-1 104-330, looked up)
chain: DKTHTCPPCPAPELLGGPSVFLFPPKPKDTLMISLTPEVTCVVVDVSHEEPEVKFNWYVDGVEVHNAKTKPREEQYNSTYRVVSVLTVLHQDWLNGKEYKCKVSNKALPAPIEKTISKAKGQPREPQVYTLPPSRDELTKNQVSLTCLVKGFYPSDIAVEWESNGQPENNYKTTPLVLDSDGSFFLYSKLTVDKSRWQQGNVFSCSVMHEALHNHYTQKSLSLSPGK
notes: domain: Fc
B9: Fc variant R255L D270E R292G P396L (other, UniProt P01857-1 104-330, looked up)
chain: DKTHTCPPCPAPELLGGPSVFLFPPKPKDTLMISLTPEVTCVVVDVSHEEPEVKFNWYVDGVEVHNAKTKPGEEQYNSTYRVVSVLTVLHQDWLNGKEYKCKVSNKALPAPIEKTISKAKGQPREPQVYTLPPSRDELTKNQVSLTCLVKGFYPSDIAVEWESNGQPENNYKTTPLVLDSDGSFFLYSKLTVDKSRWQQGNVFSCSVMHEALHNHYTQKSLSLSPGK
notes: domain: Fc
B10: Fc variant R255L D270E Y300L P396L (other, UniProt P01857-1 104-330, looked up)
chain: DKTHTCPPCPAPELLGGPSVFLFPPKPKDTLMISLTPEVTCVVVDVSHEEPEVKFNWYVDGVEVHNAKTKPREEQYNSTLRVVSVLTVLHQDWLNGKEYKCKVSNKALPAPIEKTISKAKGQPREPQVYTLPPSRDELTKNQVSLTCLVKGFYPSDIAVEWESNGQPENNYKTTPLVLDSDGSFFLYSKLTVDKSRWQQGNVFSCSVMHEALHNHYTQKSLSLSPGK
notes: domain: Fc

What was measured:
Test in all cases: assay not named in Table 4
[1] = molecular target: T1, CD16A F158 (UniProt P08637 17-208, limits assumed)
T1 construct: Only the name and allotype are printed; also called FcγRIIIA
T1 sequence (P08637 17-208 limits assumed): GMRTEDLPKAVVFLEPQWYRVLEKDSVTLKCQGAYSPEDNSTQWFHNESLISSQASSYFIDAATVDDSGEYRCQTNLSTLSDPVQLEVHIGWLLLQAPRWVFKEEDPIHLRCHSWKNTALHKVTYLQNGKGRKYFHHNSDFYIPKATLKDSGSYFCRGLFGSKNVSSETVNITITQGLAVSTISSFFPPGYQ

[2] = molecular target: T2, CD32B (UniProt P31994 43-217, limits assumed)
T2 construct: Only the name is printed; also called FcγRIIB
T2 sequence (looked up): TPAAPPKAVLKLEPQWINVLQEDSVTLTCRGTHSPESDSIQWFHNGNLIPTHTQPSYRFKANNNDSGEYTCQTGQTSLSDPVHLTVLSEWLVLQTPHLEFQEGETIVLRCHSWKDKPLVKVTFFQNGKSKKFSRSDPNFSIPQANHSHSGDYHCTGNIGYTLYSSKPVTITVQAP

[3] = molecular target: T3, CD16A V158 (UniProt P08637 17-208, limits assumed)
T3 construct: Only the name and allotype are printed; also called FcγRIIIA
T3 sequence (P08637 17-208 F176V limits assumed): as the sequence (P08637 17-208 limits assumed) above, with F160V counted along it

Row | Binder | binding relative to wild-type Fc [1] | binding relative to wild-type Fc [2] | binding relative to wild-type Fc [3]
1 | B1 | 1.71 | 0.17 | 1.89
2 | B2 | 1.64 | 0.38 | 1.75
3 | B3 | 1.43 |  | 2.56
4 | B4 | 2.53 | 0.4 | 5.37
5 | B5 | 5.62 | 1.07 | 10.1
6 | B6 | 8.25 | 1.38 | 10.1
7 | B7 | 2.46 | 0.58 | 1.89
8 | B8 | 1.65 | 0.87 | 1.34
9 | B9 |  | 0.65 | 
10 | B10 | 1.74 | 0.87 | 1.52
